Assay [1] concerns the target T1, CD22 (Acro Biosystems, Cat #CD2-H52H8) (UniProt P20273 20-687).
T1 construct: soluble analyte, 50 nM in BLI; also called Acro Biosystems antigen
T1 sequence (looked up): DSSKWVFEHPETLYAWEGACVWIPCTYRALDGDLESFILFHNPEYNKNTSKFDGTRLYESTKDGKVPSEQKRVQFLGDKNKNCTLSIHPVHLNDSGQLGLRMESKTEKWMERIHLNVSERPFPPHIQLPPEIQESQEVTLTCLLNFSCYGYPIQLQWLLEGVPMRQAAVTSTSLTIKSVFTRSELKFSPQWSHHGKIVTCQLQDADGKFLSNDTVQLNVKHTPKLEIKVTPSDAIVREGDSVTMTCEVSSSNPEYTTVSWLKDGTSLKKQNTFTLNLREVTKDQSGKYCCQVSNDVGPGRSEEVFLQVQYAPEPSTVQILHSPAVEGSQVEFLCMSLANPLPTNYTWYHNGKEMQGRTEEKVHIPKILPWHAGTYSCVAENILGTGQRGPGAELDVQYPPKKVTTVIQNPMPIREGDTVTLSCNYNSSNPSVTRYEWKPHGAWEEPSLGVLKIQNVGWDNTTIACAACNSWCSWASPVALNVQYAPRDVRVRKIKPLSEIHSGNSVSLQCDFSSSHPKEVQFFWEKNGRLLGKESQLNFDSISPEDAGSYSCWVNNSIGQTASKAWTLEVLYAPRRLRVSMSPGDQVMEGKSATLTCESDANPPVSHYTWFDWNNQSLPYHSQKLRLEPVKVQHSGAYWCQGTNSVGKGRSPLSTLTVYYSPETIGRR
As to the kind of experiment: BLI, IgG on anti-human Fc sensor, 50 nM CD22.

Assay [2] has as its target T2, CD22 Protein (His Tag), Sino Biological Cat. No. 11958-H08H (UniProt P20273 20-687).
T2 construct: soluble analyte, 50 nM in BLI; also called Sino Biological antigen
T2 sequence (looked up): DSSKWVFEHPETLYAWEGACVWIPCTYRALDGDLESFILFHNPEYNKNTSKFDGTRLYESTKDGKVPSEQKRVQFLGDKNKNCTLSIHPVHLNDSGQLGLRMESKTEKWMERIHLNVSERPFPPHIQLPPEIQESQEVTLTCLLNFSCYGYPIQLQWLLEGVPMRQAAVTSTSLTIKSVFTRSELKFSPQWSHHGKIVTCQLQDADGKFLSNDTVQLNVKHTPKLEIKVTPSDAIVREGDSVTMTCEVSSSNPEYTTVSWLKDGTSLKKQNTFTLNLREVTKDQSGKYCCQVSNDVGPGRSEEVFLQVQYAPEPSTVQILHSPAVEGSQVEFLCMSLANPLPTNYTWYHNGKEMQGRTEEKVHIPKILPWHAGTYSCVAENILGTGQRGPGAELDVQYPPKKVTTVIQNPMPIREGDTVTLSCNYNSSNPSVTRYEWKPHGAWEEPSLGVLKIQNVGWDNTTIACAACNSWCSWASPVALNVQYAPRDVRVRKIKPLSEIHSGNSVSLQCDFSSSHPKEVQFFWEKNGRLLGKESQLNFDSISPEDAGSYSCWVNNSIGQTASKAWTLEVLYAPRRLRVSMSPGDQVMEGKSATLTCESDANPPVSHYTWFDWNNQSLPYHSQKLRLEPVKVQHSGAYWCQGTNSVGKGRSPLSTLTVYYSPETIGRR
The assay is described as follows: BLI, IgG on anti-human Fc sensor, 50 nM CD22.

B1: MYT0544 (antibody, V domains shown)
VH: EVQLVQSGAEVKKPGASVKVSCKASGYRFTNYWIHWVRQAPGQGLEWIGGINPGNNYATYRRKFQGRVTMTADTSTSTVYMELSSLRSEDTAVYYCHREGYGNYGAWFAYWGQGTLVTVSS
VL: DVQVTQSPSSLSASVGDRVTITCRSSQSLANSYGNTFLSWYLHKPGKAPQLLIYGISNRFSGVPDRFSGSGSGTDFTLTISSLQPEDFATYYCLQGTHQPYTFGQGTKVEIK
notes: inotuzumab VH T97H; tie by order
In the case of B1, the binding result in assay [1] and in assay [2] was “binds” each time.

B2: MYT0550 (antibody, V domains shown)
VH: EVQLVQSGAEVKKPGASVKVSCKASGYRFTNYWIHWVRQAPGQGLEWIGGINPGNNYATYRRKFQGRVTMTADTSTSTVYMELSSLRSEDTAVYYCTREGYGHYGAWFAYWGQGTLVTVSS
VL: DVQVTQSPSSLSASVGDRVTITCRSSQSLANSYGNTFLSWYLHKPGKAPQLLIYGISNRFSGVPDRFSGSGSGTDFTLTISSLQPEDFATYYCLQGTHQPYTFGQGTKVEIK
notes: inotuzumab VH N103H; tie by order
Consider B2, for which the binding result in assay [1] and in assay [2] was “binds” in each case.

B3: MYT0526 (antibody, V domains shown)
VH: EVQLVQSGAEVKKPGASVKVSCKASGYRFTNYHIHWVRQAPGQGLEWIGGINPGNNYATYRRKFQGRVTMTADTSTSTVYMELSSLRSEDTAVYYCTREGYGNYGAWFAYWGQGTLVTVSS
VL: DVQVTQSPSSLSASVGDRVTITCRSSQSLANSYGNTFLSWYLHKPGKAPQLLIYGISNRFSGVPDRFSGSGSGTDFTLTISSLQPEDFATYYCLQGTHQPYTFGQGTKVEIK
notes: inotuzumab VH W33H; tie by order
With B3, the binding result in assay [1] and in assay [2] was “binds” throughout.

(Values after patent US20220288219A1 (MYTHIC THERAPEUTICS, published 2022).)
